Experimental findings from IntAct's records for PubMed 24876499 are described below.

The chains are these.
B1: Phosphatidylinositol 4-kinase beta (Homo sapiens), Q9UBF8-2 (parent)
chain: MGDTVVEPAPLKPTSEPTSGPPGNNGGSLLSVITEGVGELSVIDPEVAQKACQEVLEKVKLLHGGVAVSSRGTPLELVNGDGVDSEIRCLDDPPAQIREEEDEMGAAVASGTAKGARRRRQNNSAKQSWLLRLFESKLFDISMAISYLYNSKEPGVQAYIGNRLFCFRNEDVDFYLPQLLNMYIHMDEDVGDAIKPYIVHRCRQSINFSLQCALLLGAYSSDMHISTQRHSRGTKLRKLILSDELKPAHRKRELPSLSPAPDTGLSPSKRTHQRSKSDATASISLSSNLKRTASNPKVENEDEPVRLAPEREFIKSLMAIGKRLATLPTKEQKTQRLISELSLLNHKLPARVWLPTAGFDHHVVRVPHTQAVVLNSKDKAPYLIYVEVLECENFDTTSVPARIPENRIRSTRSVENLPECGITHEQRAGSFSTVPNYDNDDEAWSVDDIGELQVELPEVHTNSCDNISQFSVDSITSQESKEPVFIAAGDIRRRLSEQLAHTPTAFKRDPEDPSAVALKEPWQEKVRRIREGSPYGHLPNWRLLSVIVKCGDDLRQELLAFQVLKQLQSIWEQERVPLWIKPYKILVISADSGMIEPVVNAVSIHQVKKQSQLSLLDYFLQEHGSYTTEAFLSAQRNFVQSCAGYCLVCYLLQVKDRHNGNILLDAEGHIIHIDFGFILSSSPRNLGFETSAFKLTTEFVDVMGGLDGDMFNYYKMLMLQGLIAARKHMDKVVQIVEIMQQGSQLPCFHGSSTIRNLKERFHMSMTEEQLQLLVEQMVDGSMRSITTKLYDGFQYLTNGIM

In the test the parent is B1. Conditions: with rb11a_human RAB11A.
Regarding N162A, the “effect of a mutation on the interaction” value is given as “disrupting interaction strength”. To Y159A belongs “disrupting interaction strength”; to Y159A;N162A, “disrupting interaction strength”. On to F165A, for which the “effect of a mutation on the interaction” value is “disrupting interaction strength”.

For the variant G155D, the “effect of a mutation on the interaction” value is listed as “decreasing interaction strength”.
